Changes are numbered by the printed parent chain. No end group written: not given here.
B1: duCD19.1 anti-CD19 CAR (other)
chain: EIVMTQSPATLSLSPGERATLSCRASQDISKYLNWYQQKPGQAPRLLIYHTSRLHSGIPARFSGSGSGTDYTLTISSLQPEDFAVYFCQQGNTLPYTFGQGTKLEIKGGGGSGGGGSGGGGSQVQLQESGPGLVKPSETLSLTCTVSGVSLPDYGVSWIRQPPGKGLEWIGVIWGSETTYYQSSLKSRVTISKDNSKNQVSLKLSSVTAADTAVYYCAKHYYYGGSYAMDYWGQGTLVTVSSTTTPAPRPPTPAPTIASQPLSLRPEACRPAAGGAVHTRGLDFACDIYIWAPLAGTCGVLLLSLVITLYCKRGRKKLLYIFKQPFMRPVQTTQEEDGCSCRFPEEEEGGCELRVKFSRSADAPAYQQGQNQLYNELNLGRREEYDVLDKRRGRDPEMGGKPRRKNPQEGLYNELQKDKMAEAYSEIGMKGERRRGKGHDGLYQGLSTATKDTYDALHMQALPPR
notes: CAR on transduced primary human T cells; also called CTL119; Mono-duCD19.1
B2: Hy52 BCMA CAR (other)
chain: EVQLVESGGGLVKPGGSLRLSCAASGFTFSSFRMNWVRQAPGKGLEWVSSISSSSSYIYYADSVKGRFTISRDNAKNSLYLQMNSLRAEDTAVYYCARWLSYYGMDVWGQGTTVTVSSGGGGSGGGGSGGGGSGGGGSDIVMTQTPLSLPVTPGEPASISCRSSQSLLDSDDGNTYLDWYLQKPGQSPQLLIYTLSFRASGVPDRFSGSGSGTDFTLKIRRVEAEDVGVYYCMQRIGFPITFGQGTRLEIKTTTPAPRPPTPAPTIASQPLSLRPEACRPAAGGAVHTRGLDFACDIYIWAPLAGTCGVLLLSLVITLYCKRGRKKLLYIFKQPFMRPVQTTQEEDGCSCRFPEEEEGGCELRVKFSRSADAPAYQQGQNQLYNELNLGRREEYDVLDKRRGRDPEMGGKPRRKNPQEGLYNELQKDKMAEAYSEIGMKGERRRGKGHDGLYQGLSTATKDTYDALHMQALPPR
notes: CAR on transduced JNL cells or primary human T cells
B3: B61-10 BCMA CAR (other)
chain: QVQLVESGGGVVQPGRSLRLSCAASGFTFSSYGMHWVRQAPGKGLEWVAVISYKGSNKYYADSVKGRFTISRDNSKNTLYLQMNSLRAEDTAVYYCGGSGYALHDDYYGLDVWGQGTLVTVSSGGGGSGGGGSGGGGSGGGGSQSALTQPASVSGSPGQSITISCTGTSSDVGGYNYVSWYQQHPGKAPKLMIYEVSNRLRGVSNRFSGSKSGNTASLTISGLQAEDEADYYCSSYTSSSTLYVFGSGTKVTVLTTTPAPRPPTPAPTIASQPLSLRPEACRPAAGGAVHTRGLDFACDIYIWAPLAGTCGVLLLSLVITLYCKRGRKKLLYIFKQPFMRPVQTTQEEDGCSCRFPEEEEGGCELRVKFSRSADAPAYQQGQNQLYNELNLGRREEYDVLDKRRGRDPEMGGKPRRKNPQEGLYNELQKDKMAEAYSEIGMKGERRRGKGHDGLYQGLSTATKDTYDALHMQALPPR
notes: as for B2
B4: B61-02 BCMA CAR (other)
chain: B3 chain with T241A
notes: as for B2
B5: PI61 BCMA CAR (other)
chain: QVQLQESGGGVVQPGRSLRLSCAASGFTFSSYGMHWVRQAPGKGLEWVAVISYDGSNKYYADSVKGRFTISRDNSKNTLYLQMNSLRAEDTAVYYCGGSGYALHDDYYGLDVWGQGTLVTVSSGGGGSGGGGSGGGGSQSALTQPASVSGSPGQSITISCTGTSSDVGGYNYVSWYQQHPGKAPKLMIYDVSNRPSGVSNRFSGSKSGNTASLTISGLQAEDEADYYCSSYTSSSTLYVFGSGTKVTVLTTTPAPRPPTPAPTIASQPLSLRPEACRPAAGGAVHTRGLDFACDIYIWAPLAGTCGVLLLSLVITLYCKRGRKKLLYIFKQPFMRPVQTTQEEDGCSCRFPEEEEGGCELRVKFSRSADAPAYQQGQNQLYNELNLGRREEYDVLDKRRGRDPEMGGKPRRKNPQEGLYNELQKDKMAEAYSEIGMKGERRRGKGHDGLYQGLSTATKDTYDALHMQALPPR
notes: CAR on transduced JNL cells or primary human T cells; also called P161; Mono PI61
B6: human recombinant (r)BCMA_Fc-AF647 (Fc fusion)
chain: MLQMAGQCSQNEYFDSLLHACIPCQLRCSSNTPPLTCQRYCNASVTNSVKGTNA
modifications: cysteine pairing not given here; also: Alexa Fluor 647 label, Fc fusion tag, unspecified
notes: In-house flow cytometry staining reagent; not shown: Fc part of an in-house reagent
B7: Hy03 BCMA CAR (other)
chain: EVQLVESGGGLVQPGGSLRLSCAASGFTFSGFWMSWVRQAPGKGLEWVANIKQDGSEKYYVDSVRGRFTISRDNAKNSLYLQMNSLRAEDTAVYYCARALDYYGMDVWGQGTTVTVSSGGGGSGGGGSGGGGSGGGGSDIVMTQTPLSLPVTPGEPASISCRSSQSLLDSDDGNTYLDWYLQKPGQSPRLLIYTLSYRASGVPDRFSGSGSGTDFTLKISRVEAEDVGLYYCTQRLEFPSITFGQGTRLEIKTTTPAPRPPTPAPTIASQPLSLRPEACRPAAGGAVHTRGLDFACDIYIWAPLAGTCGVLLLSLVITLYCKRGRKKLLYIFKQPFMRPVQTTQEEDGCSCRFPEEEEGGCELRVKFSRSADAPAYQQGQNQLYNELNLGRREEYDVLDKRRGRDPEMGGKPRRKNPQEGLYNELQKDKMAEAYSEIGMKGERRRGKGHDGLYQGLSTATKDTYDALHMQALPPR
notes: as for B2

Key:
[1] = molecular target: B6; assay: flow cytometry, T cells with construct 244, day 8, rBCMA-Fc AF647 stain
Protocol: BCMA-CD19 dual or monoBCMA or monoCD19 CART cells were generated using human primary T cells (CD4+ and CD8+ lymphocytes) obtained by negative selection or positive selection via Prodigy upon processing blood from healthy apheresed donors. Before transduction, the T cells were activated using CD3/CD28 beads (Dynabeads® Human T-Expander CD3/CD28, Thermo Fisher Scientific) at a ratio of 1:3 (T cell to bead) in T cell medium (RPMI1640, 10% heat-inactivated fetal calf serum (FCS), 2 mM L-glutamine, 1× Penicillin/Streptomycin, 100 μM non-essential amino acids, 1 mM Sodium Pyruvate, 10 mM Hepes, and 55 μM 2-mercaptoethanol). The cells were cultured at a density of 0.5×10⁶/mL medium per well in a 24-well plate at 37° C., 5% CO₂. After 24 hours, when T cells were blasting, they were transduced with viruses at a multiplicity of infection (MOI) of 5 based on the upstream CAR titer. T cells began to divide in a logarithmic growth pattern, which was monitored by measuring the cell counts per mL, and T cells were diluted in fresh medium every two days and de-beaded and harvested for further analyses on day 8 or beyond depending on the size of the cells. Aliquots of T cells were stained to measure CAR expression by flow cytometry on day 7 or 8 on a FACS Fortessa (BD).

[2] = molecular target: B6; assay: flow cytometry; rBCMA_Fc-AF647 staining of CAR-transduced primary human T cells, day 5 of culture (reported by the filing as CAR expression)
Protocol: (§1) BCMA CAR T cells were generated by starting with blood from healthy apheresed donors whose T cells (CD4+ and CD8+ lymphocytes) were obtained by negative selection for CD3+ T cells. These cells were activated by the addition of CD3/CD28 beads (Dynabeads® Human T-Expander CD3/CD28, Thermo Fisher Scientific) at a ratio of 1:3 (T cell to bead) in T cell medium (RPMI1640, 10% heat-inactivated fetal calf serum (FCS), 2 mM L-glutamine, 1× Penicillin/Streptomycin, 100 μM non-essential amino acids, 1 mM Sodium Pyruvate, 10 mM Hepes, and 55 μM 2-mercaptoethanol). T cells were cultured at 0.5×10⁶ T cells in 1 mL medium per well of a 24-well plate at 37° C., 5% CO₂. After 24 hours, when T cells were blasting, T cells were transduced with BCMA CAR virus at a multiplicity of infection (MOI) of 5. […] Aliquots of T cells were stained to measure CAR expression by flow cytometry at day 5 and 9 on a FACS Fortessa (BD). All BCMA CAR T cells were produced under research grade (i.e., not clinical grade) manufacturing conditions.
(§2) The BCMA-CAR surface expression and its stability was assessed by measuring CAR % and MFI (mean fluorescence intensity) at day 5 and day 9 using flow cytometry analyses of rBCMA_Fc-AF647 stained cells (FIG. 2 and Table 27).

[3] = molecular target: B6; assay: flow cytometry; rBCMA_Fc-AF647 staining of CAR-transduced primary human T cells, day 9 of culture (reported by the filing as CAR expression)
Protocol: as §1, §2

[4] = molecular target: T1, anti-BCMA CAR arm of duCD19.1-P2A-duBCMA.4 (construct 234); assay: flow cytometry, T cells with construct 234, day 8, MFI of rBCMA-Fc stain
T1 construct: also called c234; duCD19.1-duBCMA.4

245 = molecular target: T2, 245; assay: flow cytometry, T cells with construct 245, day 8, MFI of rBCMA-Fc stain
T2 construct: also called c245; Mono-duBCMA.4

Row | Binder | binding result [1] | CAR MFI on T cells (Day 5) [2] [MFI] | CAR MFI on T cells (Day 9) [3] [MFI] | binding result [4] | binding result 245
1 | B1 | no binding |  |  |  | 
2 | B2 |  | 33700 | 2860 |  | 
3 | B3 |  | 27300 | 3290 |  | 
4 | B4 |  | 29100 | 3470 |  | 
5 | B5 |  | 24400 | 2100 |  | 
6 | B6 |  |  |  | binds | binds
7 | B7 |  | 9460 | 929 |  | 
